Data taken from publication PMC10630626.

Experiments:
[1] = target: anti-idiotypic nanobody for Palivizumab 1 (AIP1^VHH), soluble
[2] = target: anti-idiotypic nanobody for Palivizumab 3 (AIP3^VHH), soluble
[3] = target: anti-idiotypic nanobody for Palivizumab 2 (AIP2^VHH), soluble
[4] = target: anti-idiotypic nanobody for Palivizumab 1 (AIP1^VHH), soluble; remark: listed apart in the source
[5] = target: anti-idiotypic nanobody for Palivizumab 3 (AIP3^VHH), soluble; remark: listed apart in the source
[6] = target: anti-idiotypic nanobody for Palivizumab 1 (AIP1^VHH), soluble; remark: listed apart in the source
[7] = target: anti-idiotypic nanobody for Palivizumab 3 (AIP3^VHH), soluble; remark: listed apart in the source
[8] = target: anti-idiotypic nanobody for Palivizumab 2 (AIP2^VHH), soluble; remark: listed apart in the source
[9] = target: Palivizumab single-chain variable fragment, light-heavy order, fused to IgG1 Fc (P^scFvLHFc)
Palivizumab [10] = assay: ELISA; competitive: Palivizumab coated, HRP-conjugated anti-idiotypic IgG (AbD23967/HCA262P, 0.2 μg/ml; 1 nM in the legend) co-incubated with 0.1-100 nM soluble AIP1-4^VHH, 1% BSA in PBS, room temperature
[11] = target: Palivizumab single-chain variable fragment, light-heavy order, fused to IgG1 Fc (P^scFvLHFc); assay: SPR; Palivizumab (about 1000 RU) or P^scFvFc variants (about 500 RU) captured on a Protein A chip, AIP^VHH as analyte; Biacore X100, 25 °C, PBS pH 7.4 with 0.05% P20, 30 μl/min, 120 s injection, 500 s dissociation, 1:1 binding model
Palivizumab [12] = assay: as above
[13] = target: Palivizumab single-chain variable fragment, heavy-light order, fused to IgG1 Fc (P^scFvHLFc); assay: as above

B1: Palivizumab (antibody, V domains shown)
VH: QVTLRESGPALVKPTQTLTLTCTFSGFSLSTSGMSVGWIRQPPGKALEWLADIWWDDKKDYNPSLKSRLTISKDTSKNQVVLKVTNMDPADTATYYCARSMITNWYFDVWGAGTTVTVSS
VL: DIQMTQSPSTLSASVGDRVTITCKCQLSVGYMHWYQQKPGKAPKLLIYDTSKLASGVPSRFSGSGSGTEFTLTISSLQPDDFATYYCFQGSGYPFTFGGGTKLEIK
IC50 of Palivizumab (0.49-1000 nM) for proliferation of Ba/F3-gp130-AIP1^VHHgp130 cells induced by 2 nM P^scFvLHFc; blocks P^scFvLHFc with AIP1^VHHgp130 [1]: 8.28 nM
molar excess of Palivizumab over P^scFvLHFc (2 nM) for complete suppression of STAT3 phosphorylation in Ba/F3-gp130-AIP1^VHHgp130 cells (fold molar excess) [1]: > 8
EC50 of proliferation of Ba/F3-gp130-AIP3^VHHgp130 cells, Palivizumab cross-linked with a 6-fold molar excess of hFc-mAb [2]: 2.71 nM
proliferation of Ba/F3-gp130 cells expressing AIP3^VHHgp130, Palivizumab 0.033-66 nM, percent of the maximal proliferation with HIL-6 [2]: 20%
EC50 of proliferation of Ba/F3-gp130-AIP2^VHHgp130 cells, Palivizumab cross-linked with a 6-fold molar excess of hFc-mAb [3]: 48.8 nM
EC50 of proliferation of Ba/F3-gp130-AIP1^VHHgp130 cells, Palivizumab cross-linked with a 6-fold molar excess of hFc-mAb [4]: 215 nM

B2: Palivizumab single-chain variable fragment, light-heavy order, fused to IgG1 Fc (P^scFvLHFc) (Fc fusion)
VH: B1 VH
VL: B1 VL
EC50 of proliferation of Ba/F3-gp130 cells expressing AIP3^VHHgp130, P^scFvLHFc 0.00053-93.5 nM (Fig. 6B) [5]: 6.61 nM
EC50 of proliferation of Ba/F3-gp130-AIP1^VHHgp130 cells, P^scFvLHFc 0.00563-5.77 nM (Fig. 6H) [6]: 0.38 nM
EC50 of proliferation of Ba/F3-gp130 cells expressing AIP1^VHHgp130, P^scFvLHFc 0.00053-93.5 nM (Fig. 6B) [6]: 0.21 nM
lowest concentration that induced STAT3 phosphorylation in Ba/F3-gp130-AIP1^VHHgp130 cells (0.19 to 6 nM tested, Fig. 6I) [6]: 1.5 nM
caspase 3/7 activity in Ba/F3-gp130-AIP3^VHHFas cells, dimeric P^scFvLHFc 0.1-100 nM, percent of the activity with cross-linked 2× P^scFvLHFc [7]: < 50%

B3: Palivizumab single-chain variable fragment, heavy-light order, fused to IgG1 Fc (P^scFvHLFc) (Fc fusion)
VH: B1 VH
VL: B1 VL
EC50 of proliferation of Ba/F3-gp130-AIP3^VHHgp130 cells, P^scFvHLFc 0.00056-100 nM (Fig. 6E) [5]: 9.1 nM
EC50 of proliferation of Ba/F3-gp130-AIP2^VHHgp130 cells, P^scFvHLFc 0.00056-100 nM (Fig. 6E) [8]: 0.7 nM
EC50 of proliferation of Ba/F3-gp130-AIP1^VHHgp130 cells, P^scFvHLFc 0.00056-100 nM (Fig. 6E) [6]: 0.4 nM
EC50 of proliferation of Ba/F3-gp130-AIP1^VHHgp130 cells, P^scFvHLFc 0.00563-5.77 nM (Fig. 6H) [6]: 0.5 nM
lowest concentration that induced STAT3 phosphorylation in Ba/F3-gp130-AIP1^VHHgp130 cells (0.19 to 6 nM tested, Fig. 6I) [6]: 0.19 nM

B4: anti-idiotypic nanobody for Palivizumab 1 (AIP1^VHH), soluble (VHH)
VHH: DVQLQESGGGLVQAGGSLRLSCVASGLTFRYDMGWFRQAPGKEREFVAQITWRGGSATYYADSVKGRFTIARDIAKNAVYLQMNSLKPEDTAVYYCAAAYGSAGYRPDEYDSWGQGTQVTVSS
IC50 of soluble AIP1^VHH (0.49-1000 nM) for proliferation of Ba/F3-gp130-AIP1^VHHgp130 cells induced by 2 nM P^scFvLHFc; blocks P^scFvLHFc with AIP1^VHHgp130 [9]: 2.79 nM
IC50 (Palivizumab [10]): 1.76 nM
Kd [11]: 0.0098 nM
Kd (Palivizumab [12]): 0.026 nM
koff (Palivizumab [12]): 5.9e-05 s⁻¹
kon (Palivizumab [12]): 2.3e+06 M⁻¹ s⁻¹
Kd [13]: 0.0272 nM

B5: anti-idiotypic nanobody for Palivizumab 2 (AIP2^VHH), soluble (VHH)
VHH: DVQLQESGGGLVQAGGSLRLSCAASESLFRLNAMGWYRQAPGKQRELVAGITTSGDAVYADSVKGRFTISRDSAKNTVYLQTNNLKPEDTAVYYCNVRPRAGTWENARIGVWGQGTQVTVSS
IC50 of soluble AIP2^VHH (0.49-1000 nM) for proliferation of Ba/F3-gp130-AIP1^VHHgp130 cells induced by 2 nM P^scFvLHFc; blocks P^scFvLHFc with AIP1^VHHgp130 [9]: 83.1 nM
IC50 (Palivizumab [10]): 4.4 nM
Kd (Palivizumab [12]): 2.16 nM

B6: anti-idiotypic nanobody for Palivizumab 3 (AIP3^VHH), soluble (VHH)
VHH: DVQLQESGGGLVQPGGSLRLSCVASGRTWSIYAMGWFRQAPGKEREFVTAISISRSESVTHYAESVTGRFTISRDNAKNTLHLQMNSLKPEDTAVYFCAADRRSIDPHHTIDYWGQGTQVTVSS
IC50 of soluble AIP3^VHH (0.49-1000 nM) for proliferation of Ba/F3-gp130-AIP1^VHHgp130 cells induced by 2 nM P^scFvLHFc; blocks P^scFvLHFc with AIP1^VHHgp130 [9]: 364 nM
IC50 (Palivizumab [10]): 48.5 nM
Kd (Palivizumab [12]): 1.11 nM

B7: anti-idiotypic nanobody for Palivizumab 4 (AIP4^VHH), soluble (VHH)
VHH: DVQLQESGGGLVQAGGSLRLSCVASGRAFSRYDMGWFRQAPGKEREFVAQISWRGGSATSYADTVKGRFTIARDNAKNTVYLQMNSLKPEDTAVYYCNARTPTLSSWGQGTQVTVSS
Kd (Palivizumab [12]): 3.14 nM
